test: soluble on expression in E. coli; label from the status in PepcDB or PDB records

Sequence | soluble on expression in E. coli
MVSLRSGKRVSRPSPSTPLEKPAETSTNPMETPKRAVKGQKTVEEKEKLPISLRKSERLAKNSGENSSAEIAEEHKEIVAPSQENSVDDDAESTQLSVDVFADPSDFEDDDDEVVPETDYEDNNEEPKNDQNPVEIPDNSDSDDDEPMEISSKNPVTSIENPENSDSDDDEPMEATSKAPEMSVAEPKSIIEKLLEKKAEKSAKLAAKKLKKRSKKKEAKKISDGVFQVKMKKSKAKFNVVTLKAGVQNILEPQINFREELLKSRTAGTRLADTEKFLQRGKWVSKR | soluble
MSELFSERIPPQSIEAEQAVLGAVFLDPAALVPASEILIPEDFYRAAHQKIFHAMLRVADRGEPVDLVTVTAELAASEQLEEIGGVSYLSELADAVPTAANVEYYARIVEEKSVLRRLIRTATSIAQDGYTREDEIDVLLDEADRKIMEVSQRKHSGAFKNIKDILVQTYDNIEMLHNRDGEITGIPTGFTELDRMTSGFQRSDLIIVAARPSVGKTAFALNIAQNVATKTNENVAIFSLEMSAQQLVMRMLCAEGNINAQNLRTGKLTPEDWGKLTMAMGSLSNAGIYIDDTPSIRVSDIRAKCRRLKQESGLGMIVIDYLQLIQGSGRSKENRQQEVSEISRSLKALARELEVPVIALSQLSRSVEQRQDKRPMMSDIRESGSIEQDADIVAFLYRDDYYNKDSENKNIIEIIIAKQRNGPVGTVQLAFIKEYNKFVNLERRFDEAQIPPGA | soluble
MDRNPSEPERIDWKNPITWISYLYTSFVYYLWLISSHLPHLPQPQRITDDKSTEQITRDAGIPRTEIVTRGDATQTVRQVAGLGDPAPKDSSLLPPSSSFVYCNNCLTPHSSQRTCSPAYVSTLSRQKSLTLLKKLKKPSSSASSTTTTTSSTVSFRAPSRASSTISDASTIRPSELIAIVPSGSHVLLRVPKLDWKTESIRIKRTRMSDWMDAEQRDVMRQFDEVIRSEEEDERTSRKRNGIFKDGSVRSIESLESRSRSKETPVFVPPPPPPTDAMPYLPRLAELNKGTPDQEFGFNLHAERGRGHFIGTVDAGGIGEKAGLEAGQRIVGVNGQLIYPTTGHKEVVALIKKDTMKTTLLVASEDVDKYHKDHNIAYSWDNVERVDTRPVINVETHHHHEEVSVPKSNGYDVPPLNPHSIQVNEEREISKMTTTTRTETITNSNSAYQYKESSTAYDAYATPPVDSNDLMDEVFGRVNLPGVTMSSHTEVLPPTDDISSVSSLSSHRESAVDVPVSHQYVPSYATESHQKHEQHSQTHHHHHQHQQPSPLSNGSSHGYAASSTSGYDDDDIYHLSAREARERLRMKNRKHHLHEMSLNEKYQLVSNM | not soluble
MERVPLLPRRFSARPQGNQEAQERTAVKCEQVRYAIQEVIGRGAFGEVSSAEVVGTRDLVAIKRVIHDGRLRQRELTLMRDHLGPNTQQGGVSSLDVGNGVGAHATSVTGSNGEEANGTTAIDGLESWNMPTIVPYHPCVVKLLDHFFASDPSGVQYLFMVMDYIPLDVRRLHHMFLRQREQQMPIILVKVIMFQLARALAFLHARGICHRDVKPNNILVDQETGVVKLCDFGSAKKMQAVGGEGPREKNVPYIFSRYYRAPELLLGSQYYHFHVDMWAFGCVLAELLCGKVLFKGSSSTMDQLVEIIKVLGKPSERELFALNPQSAGSALIRTWGDSHNASQLSPTPSGPLPSSNSANADYMQRRSAPRVKSLLWVEVLPPNTSQAALSLIEQLLRYTPEERLTSAEVLEHVFFDELFSDDARLPNGAPLPASMFQVTREEAEILPPWLLERMAAAEGVAKG | soluble
MGRFLLVDKKAPNYENLIDKEMNEIYERVKKIDPNQNEFLQAFHEILYSLKPLFMEDPKYLPIIEMLSEPERLVQFRVCWIDDNGIQRKNRGFRVQFNSTLGIYKGGLRFHPSVNLSIVKFLGFEQIFKNSLTGLSMGGAKGGSDFDPKGKSDNEIMKFCQSFMNELYRHIGPRTDVPAGDIGVGGREIGYLFGQYKKIANSFNGTLTGKNEKWGGSILRTEATGYGLVYFVLEVLKSLNIQMDKQTAIVSGSGNVALYCVQKLLQLNVKVLTMSDSNGYIYEPNGFTNDDLNFIIELKEVRKGRIEEYLKHSSTAKYFPNEKPWNVKCTLAFPCATQNEIDLDDAKLLHKNGCILVGEGANMPSTIEAINYLKENKIILCPSKAANAGGVAISGLEMSQNFQFAKWTKETVDEKLKEIMKNIFISSSESALKYANNKYDLQVGANISGFLKVADSYIQQGL | soluble

Source: the DeepSol protein solubility set
